Assay results published in the supplement of paper PMC10567573.

B1: EPB41L3 (parent)
chain: SMQCKVILLDGSEYTCDVEKRSRG
B2: KCNK9 (parent)
chain: CFITLTTIGFGDYVALQTKGALQK

Variants of: B1
Assay: protein stability index of a GFP-peptide fusion (GPS, HEK-293T) (PSI 1-6); higher = more stable
Details: c terminus: a fixed tail appended
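Note: lentivirally expressed fusions sorted by FACS into six bins by GFP to DsRed ratio, PSI derived from sequencing read proportions per bin multiplied by bin number.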

In order of rising protein stability index:
1. YMQCKVILLDGSEYTCDVEKRSRG  1.37
2. CMQCKVILLDGSEYTCDVEKRSRG  1.74
3. VMQCKVILLDGSEYTCDVEKRSRG  1.78
4. TMQCKVILLDGSEYTCDVEKRSRG  1.92
5. KMQCKVILLDGSEYTCDVEKRSRG  1.93
6. IMQCKVILLDGSEYTCDVEKRSRG  1.93
7. RMQCKVILLDGSEYTCDVEKRSRG  1.95
8. FMQCKVILLDGSEYTCDVEKRSRG  2
9. WMQCKVILLDGSEYTCDVEKRSRG  2
10. SCQCKVILLDGSEYTCDVEKRSRG  2.08
11. HMQCKVILLDGSEYTCDVEKRSRG  2.19
12. LMQCKVILLDGSEYTCDVEKRSRG  2.2
13. NMQCKVILLDGSEYTCDVEKRSRG  2.34
14. GMQCKVILLDGSEYTCDVEKRSRG  2.37
15. SFQCKVILLDGSEYTCDVEKRSRG  2.55
16. QMQCKVILLDGSEYTCDVEKRSRG  2.64
17. AMQCKVILLDGSEYTCDVEKRSRG  2.86
18. PMQCKVILLDGSEYTCDVEKRSRG  3.04
19. SAQCKVILLDGSEYTCDVEKRSRG  3.24
20. DMQCKVILLDGSEYTCDVEKRSRG  3.27
21. EMQCKVILLDGSEYTCDVEKRSRG  3.32
22. SDQCKVILLDGSEYTCDVEKRSRG  3.38
23. MMQCKVILLDGSEYTCDVEKRSRG  3.46
24. SEQCKVILLDGSEYTCDVEKRSRG  4.4

Variants of: B2
Assay: as above
Details: c terminus: a fixed tail appended

In order of rising protein stability index:
1. CFITLTTIGFGDYVALQTKGALRK  1.72
2. CFITLTTIGFGDYVALQTKGANQK  1.91
3. CFITLTTIGFGDYVALQTKGALEK  1.94
4. CFITLTTIGFGDYVALQTKGMLQK  1.99
5. CFITLTTIGFGDYVALQTKGAIQK  2.06
6. CFITLTTIGFGDYVALQTKGALQI  2.09
7. CFITLTTIGFGDYVALQTKGGLQK  2.1
8. CFITLTTIGFGDYVALQTKGARQK  2.12
9. CFITLTTIGFGDYVALQTKGALPK  2.14
10. CFITLTTIGFGDYVALQTKGALSK  2.2
11. CFITLTTIGFGDYVALQTKGAWQK  2.21
12. CFITLTTIGFGDYVALQTKGQLQK  2.21
13. CFITLTTIGFGDYVALQTKGALQG  2.28
14. CFITLTTIGFGDYVALQTKGACQK  2.29
15. CFITLTTIGFGDYVALQTKGVLQK  2.29
16. CFITLTTIGFGDYVALQTKGALQQ  2.33
17. CFITLTTIGFGDYVALQTKGAYQK  2.37
18. CFITLTTIGFGDYVALQTKGNLQK  2.39
19. CFITLTTIGFGDYVALQTKGAKQK  2.4
20. CFITLTTIGFGDYVALQTKGALYK  2.42
21. CFITLTTIGFGDYVALQTKGSLQK  2.43
22. CFITLTTIGFGDYVALQTKGALNK  2.43
23. CFITLTTIGFGDYVALQTKGILQK  2.44
24. CFITLTTIGFGDYVALQTKGAQQK  2.46
25. CFITLTTIGFGDYVALQTKGALQH  2.47
26. CFITLTTIGFGDYVALQTKGALQL  2.51
27. CFITLTTIGFGDYVALQTKGAPQK  2.56
28. CFITLTTIGFGDYVALQTKGTLQK  2.56
29. CFITLTTIGFGDYVALQTKGALCK  2.6
30. CFITLTTIGFGDYVALQTKGAVQK  2.62
31. CFITLTTIGFGDYVALQTKGAFQK  2.72
32. CFITLTTIGFGDYVALQTKGALWK  2.73
33. CFITLTTIGFGDYVALQTKGALQA  2.85
34. CFITLTTIGFGDYVALQTKGAGQK  2.86
35. CFITLTTIGFGDYVALQTKGALFK  2.87
36. CFITLTTIGFGDYVALQTKGDLQK  2.88
37. CFITLTTIGFGDYVALQTKGALQM  2.88
38. CFITLTTIGFGDYVALQTKGALQC  2.9
39. CFITLTTIGFGDYVALQTKGALQP  2.96
40. CFITLTTIGFGDYVALQTKGALKK  2.96
41. CFITLTTIGFGDYVALQTKGPLQK  2.97
42. CFITLTTIGFGDYVALQTKGALDK  2.98
43. CFITLTTIGFGDYVALQTKGWLQK  3.01
44. CFITLTTIGFGDYVALQTKGALQV  3.03
45. CFITLTTIGFGDYVALQTKGKLQK  3.05
46. CFITLTTIGFGDYVALQTKGALHK  3.06
47. CFITLTTIGFGDYVALQTKGALQY  3.16
48. CFITLTTIGFGDYVALQTKGHLQK  3.21
49. CFITLTTIGFGDYVALQTKGALQF  3.25
50. CFITLTTIGFGDYVALQTKGALTK  3.26
51. CFITLTTIGFGDYVALQTKGALIK  3.28
52. CFITLTTIGFGDYVALQTKGALQN  3.29
53. CFITLTTIGFGDYVALQTKGRLQK  3.3
54. CFITLTTIGFGDYVALQTKGALQS  3.33
55. CFITLTTIGFGDYVALQTKGAAQK  3.37
56. CFITLTTIGFGDYVALQTKGATQK  3.37
57. CFITLTTIGFGDYVALQTKGAMQK  3.38
58. CFITLTTIGFGDYVALQTKGALQT  3.42
59. CFITLTTIGFGDYVALQTKGFLQK  3.44
60. CFITLTTIGFGDYVALQTKGALGK  3.46
61. CFITLTTIGFGDYVALQTKGALLK  3.52
62. CFITLTTIGFGDYVALQTKGLLQK  3.54
63. CFITLTTIGFGDYVALQTKGALQE  3.56
64. CFITLTTIGFGDYVALQTKGELQK  3.6
65. CFITLTTIGFGDYVALQTKGAEQK  3.67
66. CFITLTTIGFGDYVALQTKGALQD  3.71
67. CFITLTTIGFGDYVALQTKGALAK  3.76
68. CFITLTTIGFGDYVALQTKGASQK  3.93
69. CFITLTTIGFGDYVALQTKGADQK  4.33
70. CFITLTTIGFGDYVALQTKGALVK  4.51
